Experimental data taken from paper PMC8464079.
Where a chain is given by its changes, count along the chain named.

Legend:
Assay in all cases: fluorescence polarization
MUT-4C = molecular target: T1, MUT-4C (Caenorhabditis elegans, UniProt Q09487 172-535, N318C;H319Y;Q322R)
T1 sequence: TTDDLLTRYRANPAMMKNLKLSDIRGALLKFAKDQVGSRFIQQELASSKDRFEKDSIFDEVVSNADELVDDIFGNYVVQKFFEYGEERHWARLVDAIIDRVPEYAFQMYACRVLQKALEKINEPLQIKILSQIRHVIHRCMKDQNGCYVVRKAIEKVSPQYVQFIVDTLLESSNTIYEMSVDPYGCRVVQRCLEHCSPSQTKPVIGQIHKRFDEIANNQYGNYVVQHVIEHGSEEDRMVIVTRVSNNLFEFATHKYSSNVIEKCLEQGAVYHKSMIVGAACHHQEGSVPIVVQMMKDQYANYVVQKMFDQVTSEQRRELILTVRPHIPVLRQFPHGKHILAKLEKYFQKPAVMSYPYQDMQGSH

MUT-#13 (K513R) = molecular target: T2, MUT-#13 (K513R) (Caenorhabditis elegans, UniProt Q09487 172-535, K513R)
T2 sequence: T1 sequence with C147N, Y148H, R151Q, K342R

PUF-8 WT (FP) = molecular target: T3, PUF-8 WT (FP) (Caenorhabditis elegans, UniProt Q09487 172-535)
T3 sequence: T1 sequence with C147N, Y148H, R151Q

MUT-#12 (K513E) = molecular target: T4, MUT-#12 (K513E) (Caenorhabditis elegans, UniProt Q09487 172-535, K513E)
T4 sequence: T1 sequence with C147N, Y148H, R151Q, K342E

MUT-#9 (Q476A) = molecular target: T5, MUT-#9 (Q476A) (Caenorhabditis elegans, UniProt Q09487 172-535, Q476A)
T5 sequence: T1 sequence with C147N, Y148H, R151Q, Q305A

MUT-4G = molecular target: T6, MUT-4G (Caenorhabditis elegans, UniProt Q09487 172-535, N318S;H319N;Q322E)
T6 sequence: T1 sequence with C147S, Y148N, R151E

UGUAAAUA (ssRNA) [PBE-5A FAM]
Kd (MUT-4C): 16.3 ± 4.64 nM
Kd (MUT-#13 (K513R)): 60 ± 13.2 nM
Kd (PUF-8 WT (FP)): 2.49 ± 1.5 nM
Kd (MUT-#12 (K513E)): 209 ± 29.1 nM
Kd (MUT-#9 (Q476A)): 63.5 ± 11.1 nM
Kd (MUT-4G): 239 ± 48 nM
